For assay [1], the target named is chemokine receptor CCR8 (UniProt P51685). The experiment in a line: cell-based or functional assay.
The target in assay [2] is chemokine receptor CCR8 (UniProt P51685 1-355, limits assumed). The experiment in a line: cell-based or functional assay.
Chain of chemokine receptor CCR8 (UniProt P51685 1-355, limits assumed) (P51685 whole entry): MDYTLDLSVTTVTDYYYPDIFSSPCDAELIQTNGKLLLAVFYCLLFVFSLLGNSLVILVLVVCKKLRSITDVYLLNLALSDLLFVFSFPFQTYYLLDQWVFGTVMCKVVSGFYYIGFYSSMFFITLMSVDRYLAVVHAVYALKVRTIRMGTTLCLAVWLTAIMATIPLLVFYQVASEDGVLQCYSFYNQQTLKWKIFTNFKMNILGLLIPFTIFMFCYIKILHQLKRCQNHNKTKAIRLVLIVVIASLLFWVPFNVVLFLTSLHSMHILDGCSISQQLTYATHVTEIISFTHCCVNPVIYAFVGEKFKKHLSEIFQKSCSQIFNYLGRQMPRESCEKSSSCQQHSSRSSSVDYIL

Chain of chemokine receptor CCR8 (UniProt P51685) (P51685 whole entry): as above

On to MC148 fusion protein MC148p-TAT-6xHis, for which the inhibition of 1-309 induced chemotaxis (IC50) with chemokine receptor CCR8 [1] is 200 nM. The molecule “recombinant MC148 protein (from UniProt Q98314 25-104) (ligand)” returned an inhibition of 1-309 induced chemotaxis of cells expressing CCR8 (IC50) in the assay with chemokine receptor CCR8 [1] of 2 nM. The molecule “synthetic MC148 protein (from UniProt Q98314 1-104) (ligand)” gave an inhibition of 1-309 induced chemotaxis (IC50) with chemokine receptor CCR8 [1] of over 15000 nM. On to VSLARRKCCL [peptide fragment VL-10], for which, in the assay with chemokine receptor CCR8 [2], the “inhibition of 1-309 induced chemotaxis (IC50)” value was over 15000 nM.

Values taken from patent US20200277335A1 (LARRK BIO, published 2020).
